Measured values published in patent publication US20210024625A1 (published 2021).

T1: PfRH5 from Plasmodium falciparum strain 3D7 (Plasmodium falciparum, UniProt Q8IFM5 25-526)
T1 sequence: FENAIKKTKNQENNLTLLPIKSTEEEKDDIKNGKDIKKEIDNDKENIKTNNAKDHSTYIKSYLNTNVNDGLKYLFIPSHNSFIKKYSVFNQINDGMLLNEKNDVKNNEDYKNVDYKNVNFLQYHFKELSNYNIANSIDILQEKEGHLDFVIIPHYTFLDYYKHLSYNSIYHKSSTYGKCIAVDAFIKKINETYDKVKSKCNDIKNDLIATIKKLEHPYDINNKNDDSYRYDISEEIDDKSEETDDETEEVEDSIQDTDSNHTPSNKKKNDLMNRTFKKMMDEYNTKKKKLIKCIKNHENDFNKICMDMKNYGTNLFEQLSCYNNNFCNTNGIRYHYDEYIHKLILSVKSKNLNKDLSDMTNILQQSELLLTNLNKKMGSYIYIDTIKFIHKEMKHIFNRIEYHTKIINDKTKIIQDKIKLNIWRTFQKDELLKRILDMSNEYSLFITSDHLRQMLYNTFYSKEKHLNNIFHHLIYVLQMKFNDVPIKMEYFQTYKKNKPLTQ

B1: H1H29198P2 (antibody, V domains shown)
VH: QVQLVQSGAEVKKPGASVKVSCKVSGYTLTELSMHWVRQAPGKGLEWMGGFDPEHGKIIYAQKFQGRVTMTEDTSTDTAYMELSSLRSEDTAVYYCATFYNWNSYYFGMDVWGHGTTVTVSS
VL: not shown
B2: H1H29125P (antibody, V domains shown)
VH: QVQLVESGGGVVQPGRSLRLSCAASGFTFSSYGMHWVRQAPGKGLEWMAVISYDGSNKYYADSVKGRFTISRDNSKNTLFLQMNSLRPEDTAVYYCAQDGSSAIYYFYGMDVWGQGTTVTVSS
VL: DIQMTQSPSSLSASIGDRVTITCRASQDINNYLAWFQQKPGKAPKSLIYAASSLQSGVPSKFSGSGSGTDFTLTISSLQPEDFATYYCLQYNSYHPTFGQGTKLEIKR
B3: H1H29163P2 (antibody, V domains shown)
VH: QVQLVQSGAEVKKPGASVKVSCKTSGYTFTAYYIHWVRQAPGQGLEWMGWINPNNGDTNYALRFQGRVTMTRDMSINTAYMELRGLRSDDTAVYYCARDDLAAAGIGWFDSWGQGTLVTVSS
VL: not shown
B4: H1H29215P2 (antibody, V domains shown)
VH: QVQLQQWGAGLLKPSETLSLTCAVSDESFSDYYWTWIRQPPGKGLEWIGEITHSGSTHYNPSLKSRVTLSVDTSKNHFSLSLNSVTAADTAIYYCARGGDYGGLLDYWGQGTLVTVSS
VL: not shown
B5: H1H29207P2 (antibody, V domains shown)
VH: EVQLVESGGGLVQPGGSLRLSCAASGFTFSSYAMNWVRQAPGKGLEWVSAVSGSADITNYADSVKGRFTISRDNSKHTLYLQMNSLRAEDTAVYYCAKDKVYNWNYGIYYGMDVWGQGTTVTVSS
VL: not shown
B6: H1H29196P2 (antibody, V domains shown)
VH: EVQLVESGGDLVQPGGSLRLSCAASGFAVNGDYFSWVRQAPGKGLEWISVIYSSGNTYYADSVKGRFTISRHNSKNTLYLQMSSLRPEDTAVYYCARDFPPMSGADYWGQGTLVTVSS
VL: not shown
B7: H1H29138P (antibody, V domains shown)
VH: QVQLVESGGGVVQPGRSLRLSCAASGFTFSTYGMHWVRQAPGKGLEWVAVIWYDGTNKYYADSVKGRFTISRDNSKNTLYLQMISLRAEDTAVYYCARDPSGGDHYYYYGMDVWGQGTTVTVSS
VL: DIQMTQSPSSLSASVGDRITITCQASQDISNYLNWYQQKPGKAPNLLISDASDLETGVPSRFSGSGSGTDFTFTISSLQPEDFATYYCQQYDNIPITFGQGTRLEIKR
B8: H1H29141P (antibody, V domains shown)
VH: QVQLVESGGGVVQPGRSLRLSCAASGFTFSSYGMHWVRQAPGKGLEWVTFISFDERNKYYADSVKGRFTISRDNSKNTLYLQMNSLRAEDTAMYYCASEVGYSFGHDAFDIWGQGTMVTVSS
VL: not shown
B9: H1H29209P2 (antibody, V domains shown)
VH: QLQLQESGPGLVKPSETLSLTCTVSGGSISSRSHYWGWIRQPPGKGLEWIGSIYYSGSTYYNPSLKSRVTISVDTSKNQFSLKLSSVTAADTAVYYCARLGWYAEEAFEIWGQGTMVTVSS
VL: not shown
B10: H1H29214P2 (antibody, V domains shown)
VH: QLQLQESGPGLVKPSETLSLTCTVSGGSISSSSYYWGWIRQPPGKGLEWIGSIYYSGSTYYNPSLKSRVTISVDTSKNQFSLKLSSVTAADTAVYYCARQGRWERENFDYWGQGTLVTVSS
VL: not shown
B11: H1H29192P2 (antibody, V domains shown)
VH: QVQLVQSGAEVKKPGASVRVSCMASGYTFTGYYMHWVRQAPGQGLEWMGWINPNSGGTKYAQKFQGRVTMTRDTSISTAYMELSRLRSDDTAVYYCAREEVDDFWSGYLDYWGQGTLVTVSS
VL: not shown
B12: H1H29149P2 (antibody, V domains shown)
VH: QVQLQESGPGLVKPSQTLSLTCTVSGGSISSGGYYWNWIRQHPGKGLEWIGYIYYSGSTYYNPSLKSRVTISVDTSKNQFSLKLGSVTAADTAVYYCARAPPYNWFDYWGQGTLVTVSS
VL: not shown
B13: H1H29146P2 (antibody, V domains shown)
VH: EVQLVESGGGLVQPGGSLQLSCAASGFAFSDSAIYWVRQASGKGLEWVGRIRNKANRFATAYGASVKGRFSIHRDDSKNTAYLQMNSLKTEDTAVYYCARHGHDTLTEGYGMDVWGQGTTVTVSS
VL: not shown

Assays:
Assay in all cases: cell-based or functional assay
[1] = target: PfRH5 from Plasmodium falciparum strain 7G8 (Plasmodium falciparum)
[2] = target: PfRH5 from Plasmodium falciparum strain Cam3.II (Plasmodium falciparum)
[3] = target: PfRH5 from Plasmodium falciparum strain D10 (Plasmodium falciparum)
[4] = target: PfRH5 from Plasmodium falciparum strain HB3 (Plasmodium falciparum)
[5] = target: PfRH5 from Plasmodium falciparum strain FCR-1/FVO (Plasmodium falciparum)
[6] = target: PfRH5 from Plasmodium falciparum strain W2-mef (Plasmodium falciparum)
[7] = target: PfRH5 from Plasmodium falciparum strain Dd2 (Plasmodium falciparum)
[8] = target: PfRH5 from Plasmodium falciparum strain RF7 (Plasmodium falciparum)
[9] = target: T1, PfRH5 from Plasmodium falciparum strain …

Row | Binder | Max growth inhibition (%) [1] | Max growth inhibition (%) [2] | Max growth inhibition (%) [3] | Max growth inhibition (%) [4] | Max growth inhibition (%) [5] | Max growth inhibition (%) [6] | Max growth inhibition (%) [7] | Max growth inhibition (%) [8] | Max growth inhibition (%) [9]
1 | B1 | 5.31% | 14.7% | 4.38% | 15.5% | 11.1% | -3.61% | 10.1% | 1.53% | 
2 | B2 | 47% | 42.7% | 75.4% |  | 67.6% | 64.6% | 51.4% | 21% | 51.1%
3 | B3 | 62.6% | 46.7% |  | 56.5% | 64.5% | 63.7% | 61.2% | 10.7% | 55.6%
4 | B4 | 33.2% | 27.2% | 35.8% | 30.1% | 54% | 37.2% | 22.8% | 11.3% | 
5 | B5 | 58.7% | 45.3% | 73.9% | 49.3% | 69.2% | 65.2% | 61.3% | 31.1% | 
6 | B6 | 23.4% | 6.09% | 14.3% | 26.8% | 21.9% | 17% | -1.65% | 3.78% | 
7 | B7 | 57.4% | 48.7% | 57.1% | 51.4% | 84.1% | 66.4% | 74.4% | 51.4% | 58.5%
8 | B8 | 54.6% | 49.3% | 50% | 50% | 74.2% | 56.2% | 65.3% | 32.1% | 48.2%
9 | B9 | 49.9% | 47.3% | 72.7% | 52.4% | 19.2% | 39.6% | 38.1% | 11.9% | 
10 | B10 | 56.7% | 46.7% | 76.5% | 59.1% | 13.1% | 52.7% | 47.2% | 11.2% | 
11 | B11 | 12.4% | -3.38% | 8.7% | 5.62% | 15.1% | 4.35% | -15.2% | -7.69% | 
12 | B12 |  | 36.2% | 66% | 40% | 58% | 42.8% |  | 14.7% | 44.1%
13 | B13 | 19.1% | 8.18% | 10.8% | 33.9% | 7.32% | 0.57% |  | 5.97% | 8.57%
